Reference: patent US20120058906A1 (published 2012)

Assays:
[1] = target: T1, rHuman Notch-1/Fc Chimera, CF (R&D Systems Cat#3647-TK) (human, UniProt P46531 19-526); assay: MSD ECL multi-spot, Fab 0.43 uM, blank 879
T1 construct: Bought Fc chimera; Fc part of the bought chimera not given

[2] = target: T2, rHuman IGF-1 sR (insulin-like growth factor-1 soluble receptor), CF (R&D Systems Cat#391-GR) (human, UniProt P08069 31-932); assay: MSD ECL multi-spot, Fab 0.43 uM, blank 879
T2 construct: Bought soluble receptor; also called IGF-R1

[3] = target: T3, Recombinant Human DLL4 (R&D Systems Cat#1506-D4/CF) (human, UniProt Q9NR61 27-524); assay: MSD ECL multi-spot, Fab 0.43 uM, blank 879
T3 construct: Bought recombinant protein; also called rHuman DLL4; delta-like protein 4

[4] = target: T4, rHuman IGF-1 sR (IGF-1 sR), CF (R&D Systems Cat#391-GR) (human, UniProt P08069 31-932); assay: ECL (MSD multi-spot), antigen spotted on plate; Fab 0.32 nM; blank 518
T4 construct: Bought soluble receptor; also called insulin-like growth factor-1 soluble receptor; IGF-R1

[5] = target: T5, rHuman EGF R/Fc Chimera, CF (R&D Systems Cat#344-ER) (human, UniProt P00533 25-645); assay: as above
T5 construct: Bought protein; also called epidermal growth factor receptor; Fc part of the bought chimera not given

[6] = target: T6, Recombinant Human DLL4 (R&D Systems Cat#1506-D4/CF) (human, UniProt Q9NR61 27-524); assay: as above
T6 construct: Bought protein; also called rHuman DLL4; delta-like protein 4

[7] = target: T7, rHuman HGF R/c-MET/Fc Chimera, CF (R&D Systems Cat#358-MT/CF) (human, UniProt P08581 25-932); assay: as above
T7 construct: Bought protein; also called HGF R/Fc; hepatocyte growth factor receptor; Fc part of the bought chimera not given

[8] = target: T4, rHuman IGF-1 sR (IGF-1 sR), CF (R&D …); assay: ECL (MSD multi-spot), antigen spotted on plate; Fab 1.6 nM; blank 713
[9] = target: T5, rHuman EGF R/Fc Chimera, CF (R&D …); assay: as above
[10] = target: T6, Recombinant Human DLL4 (R&D Systems …); assay: as above
[11] = target: T7, rHuman HGF R/c-MET/Fc Chimera, CF (R&D …); assay: as above
[12] = target: T4, rHuman IGF-1 sR (IGF-1 sR), CF (R&D …); assay: ECL (MSD multi-spot), antigen spotted on plate; Fab 200 nM; blank 1787
[13] = target: T5, rHuman EGF R/Fc Chimera, CF (R&D …); assay: as above
[14] = target: T6, Recombinant Human DLL4 (R&D Systems …); assay: as above
[15] = target: T7, rHuman HGF R/c-MET/Fc Chimera, CF (R&D …); assay: as above
[16] = target: T4, rHuman IGF-1 sR (IGF-1 sR), CF (R&D …); assay: ECL (MSD multi-spot), antigen spotted on plate; Fab 8 nM; blank 1117
[17] = target: T5, rHuman EGF R/Fc Chimera, CF (R&D …); assay: as above
[18] = target: T6, Recombinant Human DLL4 (R&D Systems …); assay: as above
[19] = target: T7, rHuman HGF R/c-MET/Fc Chimera, CF (R&D …); assay: as above
[20] = target: T4, rHuman IGF-1 sR (IGF-1 sR), CF (R&D …); assay: ECL (MSD multi-spot), antigen spotted on plate; Fab 40 nM; blank 1442
[21] = target: T5, rHuman EGF R/Fc Chimera, CF (R&D …); assay: as above
[22] = target: T6, Recombinant Human DLL4 (R&D Systems …); assay: as above
[23] = target: T7, rHuman HGF R/c-MET/Fc Chimera, CF (R&D …); assay: as above
[24] = target: T4, rHuman IGF-1 sR (IGF-1 sR), CF (R&D …); assay: ECL (MSD multi-spot), antigen spotted on plate; Fab 1000 nM; blank 2186
[25] = target: T5, rHuman EGF R/Fc Chimera, CF (R&D …); assay: as above
[26] = target: T6, Recombinant Human DLL4 (R&D Systems …); assay: as above
[27] = target: T7, rHuman HGF R/c-MET/Fc Chimera, CF (R&D …); assay: as above
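Further: blank spot per well as comparator with Hit at signal to blank ratio of 4 or more.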

B1: Fab VH1-46_IGHD6-13*01_IGHJ4*01 & B3_IGKJ1*01 (Fab, V domains shown)
VH: QVQLVQSGAEVKKPGASVKVSCKASGYTFTSYYMHWVRQAPGQGLEWMGIINPSGGSTSYAQKFQGRVTMTRDTSTSTVYMELSSLRSEDTAVYYCAREGYSSSWYDYFDYWGQGTLVTVSS
VL: not shown
notes: Expressed in E. coli as Fab: heavy chain with CH1 plus Flag and His tags from Plasmid A, kappa light chain constant region from Plasmid C; also called Fab No. 6
[1]
  ECL signal: 1790
[2]
  ECL signal: 1140
[3]
  ECL signal: 2540

B2: Fab VH1-46_IGHD6-6*01>1_IGHJ1*01_S104F & L6_IGKJ1*01 (Fab, V domains shown)
VH: QVQLVQSGAEVKKPGASVKVSCKASGYTFTSYYMHWVRQAPGQGLEWMGIINPSGGSTSYAQKFQGRVTMTRDTSTSTVYMELSSLRSEDTAVYYCAREEYSSFSAEYFQHWGQGTLVTVSS
VL: not shown
notes: Expressed in E. coli as a Fab; The heavy chain also carries the CH1 with Flag and His tags from Plasmid A, and the light chain the kappa CL from Plasmid C; also called VH1-46_IGHD6-6*01_IGHJ1*01 S104F & L6_IGKJ1*01; IGHV1-46*01
[4]
  ECL signal: 630
[5]
  ECL signal: 709
[6]
  ECL signal: 916
[7]
  ECL signal: 710
[8]
  ECL signal: 966
[9]
  ECL signal: 987
[10]
  ECL signal: 5920
[11]
  ECL signal: 861
[12]
  ECL signal: 2780
[13]
  ECL signal: 2920
[14]
  ECL signal: 58700
[15]
  ECL signal: 2840
[16]
  ECL signal: 1520
[17]
  ECL signal: 1470
[18]
  ECL signal: 44800
[19]
  ECL signal: 1620
[20]
  ECL signal: 2140
[21]
  ECL signal: 2300
[22]
  ECL signal: 62000
[23]
  ECL signal: 2110
[24]
  ECL signal: 3070
[25]
  ECL signal: 3580
[26]
  ECL signal: 35300
[27]
  ECL signal: 3310
